According to article PMC3125217:

Key:
Test in all cases: inhibition of PE/PC monolayer binding (surface pressure, Wilhelmy technique); spectrin polypeptides preincubated 30 min at room temperature with ankSBD, then injected under a PE/PC 3:2 monolayer; 5 mM Tris/HCl pH 7.5, 0.5 mM EDTA, 150 mM NaCl, 0.5 mM dithiothreitol, 1 mM NaN3; 21°C
[1] = biological target: ankBDn triple mutant CLSC (W1771C, M1778S, W1779C) (UniProt P11277)
[2] = biological target: ankBDn triple mutant SSSW (W1771S, L1775S, M1778S) (UniProt P11277)
[3] = biological target: recombinant ankyrin-binding domain of erythroid β-spectrin (ankBDn), wild type (UniProt P11277)

Ki [1]: 0.17 nM | Ki [2]: 0.2 nM | Ki [3]: 0.15 nM
Substance: recombinant spectrin-binding domain of erythrocyte ankyrin (ankSBD) (from UniProt P16157 1-1881) (domain or fragment)
